Measured values taken from the supplement of paper PMC9233669.
Variants at the floor of the assay were thinned out.

How the values were obtained:
biotinyl-Phe-oxazolone = experiment: self-aminoacylation, catalytic enhancement (BFO) (fold over background); higher = more active; k-Seq, kA / k0A0; sequences stand for … in GGGAAUGGAUCCACAUCUACGAAUUC…UUCACUGCAGACUUGACGAAGCUG
Outline: (§1)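 The uncatalyzed rate is the low-activity peak of a bimodal Gaussian fit, and catalytic enhancement is median kA divided by it. The kA values came from pseudo-first-order fits, with 1000 bootstraps, of per-sequence fraction reacted measured by streptavidin capture, triplicate qPCR and Illumina sequencing. Mutagenized RNA pools with a 21-nt variable region (0.43 μM) were reacted with each biotinyl-aminoacyl-oxazolone at 2–1250 μM in 50 μL HEPES/NaCl/KCl/MgCl2/CaCl2 buffer with 5% acetonitrile, pH 6.9–7.0, for 90 minutes at room temperature.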

biotinyl-Ile-oxazolone = experiment: self-aminoacylation, catalytic enhancement (BIO) (fold over background); higher = more active; k-Seq, kA / k0A0; sequences stand for … in GGGAAUGGAUCCACAUCUACGAAUUC…UUCACUGCAGACUUGACGAAGCUG
Outline: as §1

biotinyl-Met-oxazolone = experiment: self-aminoacylation, catalytic enhancement (BMO) (fold over background); higher = more active; k-Seq, kA / k0A0; sequences stand for … in GGGAAUGGAUCCACAUCUACGAAUUC…UUCACUGCAGACUUGACGAAGCUG
Outline: as §1

biotinyl-Val-oxazolone = experiment: self-aminoacylation, catalytic enhancement (BVO) (fold over background); higher = more active; k-Seq, kA / k0A0; sequences stand for … in GGGAAUGGAUCCACAUCUACGAAUUC…UUCACUGCAGACUUGACGAAGCUG
Outline: as §1

biotinyl-Leu-oxazolone = experiment: self-aminoacylation, catalytic enhancement (BLO) (fold over background); higher = more active; k-Seq, kA / k0A0; sequences stand for … in GGGAAUGGAUCCACAUCUACGAAUUC…UUCACUGCAGACUUGACGAAGCUG
Outline: as §1

biotinyl-Trp-oxazolone = experiment: self-aminoacylation, catalytic enhancement (BWO) (fold over background); higher = more active; k-Seq, kA / k0A0; sequences stand for … in GGGAAUGGAUCCACAUCUACGAAUUC…UUCACUGCAGACUUGACGAAGCUG
Outline: as §1

| Sequence | self-aminoacylation (biotinyl-Phe-oxazolone) | self-aminoacylation (biotinyl-Ile-oxazolone) | self-aminoacylation (biotinyl-Met-oxazolone) | self-aminoacylation (biotinyl-Val-oxazolone) | self-aminoacylation (biotinyl-Leu-oxazolone) | self-aminoacylation (biotinyl-Trp-oxazolone) |
| --- | --- | --- | --- | --- | --- | --- |
| CCACGCUUCAAGCAUUCGGUC [Fam1B.1 aminoacylation ribozyme variant] | 0.774 | 1.24 | 1.06 | 1.93 | 1.11 | 1.31 |
| CUACUUCAAACAAUCGGUAUA [Fam1A.1 aminoacylation ribozyme variant] | 1.24 | 0.772 | 0.607 | 0.688 | 0.661 | 0.725 |
| CUACUUCAAACGAUCGUUCUG [Fam1A.1 aminoacylation ribozyme variant] | 0.639 | 0.493 | 0.442 | 0.632 | 0.423 | 0.447 |
| AUUACGCUGGGCAUCGAGUGA [Fam2.1 aminoacylation ribozyme variant] | 43.1 | 3.69 | 7.19 | 4 | 7.76 | 6.96 |
| GUUACCCUGGUCAUCGAGUGU [Fam2.1 aminoacylation ribozyme variant] | 825 | 31.5 | 111 | 37.1 | 114 | 102 |
| UUACUUCAAACAAUCGUUCUG [Fam1A.1 aminoacylation ribozyme variant] | 2.05 | 0.996 | 1 | 0.975 | 0.983 | 1.05 |
| CCACGCUUCAAGGAAUCGGUC [Fam1B.1 aminoacylation ribozyme variant] | 11.6 | 1.11 | 1.22 | 1.1 | 1.19 | 11 |
| AGGUUUGCUAAUAGUCGGAAG [Fam3.1 aminoacylation ribozyme variant] | 12.2 | 1.22 | 1.24 | 0.944 | 1.02 | 3.12 |
| CCGCACUUCAAGCUAUCGGUC [Fam1B.1 aminoacylation ribozyme variant] | 0.936 | 1.15 | 0.919 | 1.42 | 0.84 | 1.19 |
| AUUCACCUAGCUCAUCGGCUG [Fam2.2 aminoacylation ribozyme variant] | 3.23 | 1.67 | 1.92 | 1.96 | 2.05 | 1.25 |
| CGACACUUCAAGCCAUCGGUC [Fam1B.1 aminoacylation ribozyme variant] | 0.589 | 1.3 | 1.17 | 1.59 | 1.17 | 1.9 |
| CUUACCAUGGUCAUCGAGUGA [Fam2.1 aminoacylation ribozyme variant] | 14.4 | 3.16 | 5.89 | 3 | 5.9 | 7.03 |
| AUUUACCUAGGUCAUCGGGGG [Fam2.2 aminoacylation ribozyme variant] | 3.14 | 2.81 | 3.84 | 2.46 | 4.77 | 2.43 |
| AUACACCUAGUUCAUCGGGUG [Fam2.2 aminoacylation ribozyme variant] | 4.89 | 2.33 | 1.73 | 2.19 | 1.78 | 3.48 |
| AAGUUUGCUAUUUGUCGCAAG [Fam3.1 aminoacylation ribozyme variant] | 1.05 | 1.04 | 0.936 | 0.819 | 0.989 | 1.2 |
| CUCCUUCAAACAAUCGAUCUG [Fam1A.1 aminoacylation ribozyme variant] | 2.82 | 0.586 | 0.571 | 0.705 | 0.589 | 1.2 |
| CCUCACUUCAAGUAAUCGGUC [Fam1B.1 aminoacylation ribozyme variant] | 14.2 | 1 | 0.949 | 0.821 | 1.17 | 8.32 |
| GUUCACGUAGGUCAUCGGGUG [Fam2.2 aminoacylation ribozyme variant] | 30.3 | 3.06 | 4.57 | 4.2 | 4.45 | 5.39 |
| GAGUUUGCUAAUGGUCGCAAG [Fam3.1 aminoacylation ribozyme variant] | 2.82 | 0.99 | 0.779 | 1.02 | 0.903 | 1.16 |
| UCACACUUAAAGCAAUCGGUC [Fam1B.1 aminoacylation ribozyme variant] | 0.642 | 0.86 | 0.737 | 0.844 | 0.761 | 0.575 |
| CCACACUUCAAGCUAGCGGUC [Fam1B.1 aminoacylation ribozyme variant] | 0.856 | 0.921 | 0.714 | 0.911 | 0.984 | 0.75 |
| UAGUUUGCUAAUAGUCGAAAG [Fam3.1 aminoacylation ribozyme variant] | 6.07 | 1.33 | 1.09 | 1.15 | 1 | 3.49 |
| CCACACUUCAAACUAUCGGUC [Fam1B.1 aminoacylation ribozyme variant] | 1.09 | 0.976 | 0.781 | 0.909 | 0.83 | 0.882 |
| AUUACCCAGGUCAUAGAGUGA [Fam2.1 aminoacylation ribozyme variant] | 37.5 | 4.85 | 10.7 | 5.27 | 9.64 | 11.3 |
| CGACUUCAACCAAUCGGUCUG [Fam1A.1 aminoacylation ribozyme variant] | 64.2 | 1.56 | 1.35 | 1.42 | 2.26 | 31.6 |
| CUACUUCAAAGACUCGGUCUG [Fam1A.1 aminoacylation ribozyme variant] | 3.52 | 1.12 | 1.16 | 1.2 | 1.01 | 1.35 |

| Sequence | self-aminoacylation (biotinyl-Phe-oxazolone) | self-aminoacylation (biotinyl-Ile-oxazolone) | self-aminoacylation (biotinyl-Met-oxazolone) | self-aminoacylation (biotinyl-Val-oxazolone) | self-aminoacylation (biotinyl-Leu-oxazolone) | self-aminoacylation (biotinyl-Trp-oxazolone) |
| --- | --- | --- | --- | --- | --- | --- |
| UCACACUUCAAGCAAUAGGUC [Fam1B.1 aminoacylation ribozyme variant] | 0.918 | 0.671 | 0.434 | 0.668 | 0.495 | 0.559 |
| CCACACUUCAAGCAAUGGGUC [Fam1B.1 aminoacylation ribozyme variant] | 0.841 | 0.78 | 0.677 | 0.793 | 0.677 | 0.627 |
| CGGCUUCAAACAAUCGGUCUG [Fam1A.1 aminoacylation ribozyme variant] | 106 | 1.41 | 1.62 | 1.49 | 2.46 | 45.1 |
| AUGACCCUGGUCAUCGAGUGA [Fam2.1 aminoacylation ribozyme variant] | 451 | 18.6 | 58.9 | 19.3 | 55.8 | 51.6 |
| AGUACCCUGGUCAUCGAGUGA [Fam2.1 aminoacylation ribozyme variant] | 28.7 | 6.11 | 13.2 | 6.48 | 12.8 | 13.6 |
| AUUCACCUAGGUCAUCUGGUG [Fam2.2 aminoacylation ribozyme variant] | 16.5 | 1.93 | 2.71 | 1.9 | 3.41 | 2.62 |
| AUUCACCUAGGUAAUCGGGCG [Fam2.2 aminoacylation ribozyme variant] | 7.69 | 1.63 | 1.66 | 1.65 | 2.62 | 2.33 |
| AUUCACCCAGGACAUCGGGUG [Fam2.2 aminoacylation ribozyme variant] | 30.2 | 2.97 | 2.8 | 3.27 | 2.83 | 3.3 |
| CCACACUUCAUGCAAUCGGUC [Fam1B.1 aminoacylation ribozyme variant] | 0.866 | 0.819 | 0.687 | 0.9 | 0.693 | 0.689 |
| AUUCCCCUAGGUCAUCUGGUG [Fam2.2 aminoacylation ribozyme variant] | 107 | 10.6 | 14.7 | 9.58 | 18.8 | 15.3 |
| AUUACCCGGGUCAUAGAGUGA [Fam2.1 aminoacylation ribozyme variant] | 71.4 | 4.55 | 9.33 | 4.45 | 9.4 | 10.4 |
| CCACACUUCAAACAAUCGGUU [Fam1B.1 aminoacylation ribozyme variant] | 29.6 | 1.91 | 1.93 | 2.17 | 2.57 | 21.5 |
| CUACUUCAAACAAUUCGUCUG [Fam1A.1 aminoacylation ribozyme variant] | 0.738 | 0.827 | 0.722 | 0.859 | 0.628 | 0.602 |
| CCACACUUCAAGCAAUGGUUC [Fam1B.1 aminoacylation ribozyme variant] | 0.776 | 0.619 | 0.61 | 0.574 | 0.596 | 0.678 |
| CUACUUCAAACAAACUGUCUG [Fam1A.1 aminoacylation ribozyme variant] | 0.742 | 0.684 | 0.562 | 0.717 | 0.547 | 0.5 |
| CUACUCCAAACAAUGGGUCUG [Fam1A.1 aminoacylation ribozyme variant] | 0.772 | 0.948 | 0.784 | 0.863 | 0.799 | 0.754 |
| CCACACUUAAAGCUAUCGGUC [Fam1B.1 aminoacylation ribozyme variant] | 0.762 | 1.03 | 0.887 | 1.1 | 0.915 | 0.89 |
| AUUCACCUAGGUCGUCGGGAG [Fam2.2 aminoacylation ribozyme variant] | 0.385 | 0.982 | 0.924 | 1.36 | 1.27 | 0.943 |
| AUUACCCUGGUCACCGAGGGA [Fam2.1 aminoacylation ribozyme variant] | 0.887 | 1.67 | 2.27 | 2.39 | 1.83 | 3.76 |
| AUUCACCUAGAUGAUCGGGUG [Fam2.2 aminoacylation ribozyme variant] | 13.7 | 2.32 | 2.77 | 2.62 | 2.71 | 3.34 |
| CCAUACUUCAAGCAAUCAGUC [Fam1B.1 aminoacylation ribozyme variant] | 7.22 | 0.884 | 0.659 | 0.81 | 0.804 | 2.64 |
| AUACACAUAGGUCAUCGGGUG [Fam2.2 aminoacylation ribozyme variant] | 40.3 | 3.69 | 5.61 | 3.83 | 6.21 | 6.66 |
| CUAUACUUCAAGCAAUCGGUC [Fam1B.1 aminoacylation ribozyme variant] | 21.3 | 0.782 | 0.837 | 0.936 | 1.06 | 9.69 |
| AUUACCCUGGUCAUCGGGGGA [Fam2.1 aminoacylation ribozyme variant] | 44.2 | 4.75 | 7.12 | 5.36 | 9.21 | 10.7 |
| AUUCUCCUAGGACAUCGGGUG [Fam2.2 aminoacylation ribozyme variant] | 27.8 | 2.81 | 4.55 | 3.62 | 5.06 | 3.73 |
